Where a chain is given by its changes, count along the chain named.
T1: secretory phospholipase A2 (sPLA2) (Homo sapiens, UniProt P14555 P14555:21-144)
T1 sequence: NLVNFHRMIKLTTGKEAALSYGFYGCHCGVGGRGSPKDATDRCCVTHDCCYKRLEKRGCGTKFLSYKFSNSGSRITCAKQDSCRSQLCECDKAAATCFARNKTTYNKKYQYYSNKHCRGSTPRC

B1: 71 (ssRNA)
RNA: GGGAGCUCAGAAUAAACGCUCAAUCUCAUGCUCGUCGCACGGCGUAACCUAUUUCGACAUGAGGCCCGGAUCCGGC
B2: 72F (ssRNA)
RNA: GGGAGCUCAGAAUAAACGCUCAAGACCUCUGCUUACAGCCCGGCUGAGACACUUCGACAUGAGGCCCGGAUCCGGC
modifications: 2'-F all C and U
B3: 73tF (ssRNA)
RNA: GGGAGCUCAGAAUAAACGCUCAACUUACAGUUCGGCUGAGAGAAGACGCAUACUUCGACAUGAGGCCCGGAUCCGGC
modifications: 2'-F all C and U
B4: 11tF (ssRNA)
RNA: GGGAGCUCAGAAUAAACGCUCAACUUACGGGUAAAGCCGAGAAAAUGUAUUGCUUCGACAUGAGGCCCGGAUCCGGC
modifications: 2'-F all C and U
B5: 86tF (ssRNA)
RNA: GGGAGCUCAGAAUAAACGCUCAACGCCUCAUGCCAAUGCGGGAGGGUGGGUGGUUCGACAUGAGGCCCGGAUCCGGC
modifications: 2'-F all C and U
B6: NN11 (ssRNA)
RNA: GGGAAAAGCGAAUCAUACACAAGACCGGCCGGGGAAACCCGAGGUCCGAGGUAACGCAUGGCGCCUCACCGAGUCGCUCCGCCAGAGACCAACCGAGAA
modifications: 2'-NH2 all C and U
B7: NN16 (ssRNA)
RNA: B6 RNA with G44A
modifications: 2'-NH2 all C and U
B8: NN10 (ssRNA)
RNA: GGGAAAAGCGAAUCAUACACAAGACCGGCCGGCGCCAUAGCCGAGAUCCGAGGUUGUACGAUGACAACUCAGUGCUCCGCCAGAGACCAACCGAGAA
modifications: 2'-NH2 all C and U
B9: NN2 (ssRNA)
RNA: GGGAAAAGCGAAUCAUACACAAGAGACCGGCCAGCCAAGGCGCUGAGAUCCGAGGUUUCAGAACCCAUCGGGUUGGCUCCGCCAGAGACCAACCGAGAA
modifications: 2'-NH2 all C and U
B10: NN29 (ssRNA)
RNA: GGGAAAAGCGAAUCAUACACAAGACCGGCCCGGUGUGUAGCCGGAGAUCCGAGACUUGCUGAACGAGGUGCCACGGCUCCGCCAGAGACCAACCGAGAA
modifications: 2'-NH2 all C and U
B11: NN41 (ssRNA)
RNA: B10 RNA with U38C, G65A
modifications: 2'-NH2 all C and U
B12: NN5 (ssRNA)
RNA: GGGAAAAGCGAAUCAUACACAAGACCGGCCCCGCCAAUCAAGGGAGAUCCGAGGAAUUGGAAUGUUUGUGAGUGAGCUCCGCCAGAGACCAACCGAGAA
modifications: 2'-NH2 all C and U
B13: NN19.11 (ssRNA)
RNA: GGGAAAAGAAGACCGGCCGGCGCCAUAGCCGAGAUCCGAGGUGUUGAACGAUAGACCAACCGAGAA
modifications: 2'-NH2 all C and U
B14: NN19.13 (ssRNA)
RNA: GGGAAAAGAAGACCGGCCGGCGCCAUAGCCGAGAUCCGAGGUGUUGAGACCAACCGAGAA
modifications: 2'-NH2 all C and U
B15: NN19.14 (ssRNA)
RNA: GGGAAAAGAAGACCGGCCGGCGCCAUAGCCGAGAUCCGAGGUGUUGAACGAUCCGAGAA
modifications: 2'-NH2 all C and U
B16: NS2 (ssRNA)
RNA: GGGAGGACGAUGCGGUAGUAACGGAUACUGAUCCGAGGUUAUAGUCACUAUAUCAUCCGCUGCGCCAGACGACUCGCCCGA
modifications: 2'-NH2 all C and U
B17: NN1 (ssRNA)
RNA: GGGAAAAGCGAAUCAUACACAAGACGGCGAGCAUGCGGCGAGUGGAGGGGGACUGAUGGAGGGCGAGACCGUGUGCUCCGCCAGAGACCAACCGAGAA
modifications: 2'-NH2 all C and U
B18: NN22 (ssRNA)
RNA: B17 RNA with G49A
modifications: 2'-NH2 all C and U
B19: NN30 (ssRNA)
RNA: GGGAAAAGCGAAUCAUACACAAGAGCCAGCGAGUGUCGACAGUGUGGGUGGAAGUGACGGGAGGAUUGGAGACGCUCCGCCAGAGACCAACCGAGAA
modifications: 2'-NH2 all C and U
B20: NN40 (ssRNA)
RNA: GGGAAAAGCGAAUCAUACACAAGACCCCUUGAGCUCGUGACGCAGGAGGAGGGCCGAGGAGGAAAGUCGUCACAGCUCCGCCAGAGACCAACCGAGAA
modifications: 2'-NH2 all C and U
B21: NS1 (ssRNA)
RNA: GGGAGGACGAUGCGGAUAAGGAGGAGCAAGCGAGAAAUUGAGAAGUAACAAGAUCGACAUGGCCCCAGACGACUCGCCCGA
modifications: 2'-NH2 all C and U
B22: NS4 (ssRNA)
RNA: GGGAGGACGAUGCGGGUAGGGAUAAGCGAGUGUACAGCGAAUACGACUCGGAAUGCUUGGUGCGCCAGACGACUCGCCCGA
modifications: 2'-NH2 all C and U
B23: NS6 (ssRNA)
RNA: GGGAGGACGAUGCGGAACUAAAAGACAGAGAGAAAACGACAAUACGAAGUACAUAUAACCCUGGCCAGACGACUCGCCCGA
modifications: 2'-NH2 all C and U
B24: NS7 (ssRNA)
RNA: GGGAGGACGAUGCGGAGGAAAUGAAGUAGUGAGAGUAUAACAUGAUUAUGAAUACGUGAUGUGGCCAGACGACUCGCCCGA
modifications: 2'-NH2 all C and U
B25: NS10 (ssRNA)
RNA: GGGAGGACGAUGCGGUGACAAAUGAGCAAGUAGCGAUAGAUGUGAUGGACAGAGACAGCCGGGGCCAGACGACUCGCCCGA
modifications: 2'-NH2 all C and U
B26: NS12 (ssRNA)
RNA: GGGAGGACGAUGCGGUGAAAGAGAAAGGUUGAGAUGAUUACAAGCGAAUUGGAUAAGUGUCUGGCCAGACGACUCGCCCGA
modifications: 2'-NH2 all C and U
B27: NS13 (ssRNA)
RNA: GGGAGGACGAUGCGGUGAGCUUAGGAUAGGAGCAACAAGUAGAGUAGAGUGAUAACUAGGGUGGCCAGACGACUCGCCCGA
modifications: 2'-NH2 all C and U
B28: NS14 (ssRNA)
RNA: GGGAGGACGAUGCGGAAAUGUGUUAGUGAAUGAUUGAGAGAAGAUAGAUGAUGUUGAAGUCUGGCCAGACGACUCGCCCGA
modifications: 2'-NH2 all C and U
B29: NS18 (ssRNA)
RNA: GGGAGGACGAUGCGGAAGUAGAUGAUGGAUUGAGAUGUAAGUGUCAGUAUGAAGAGUCUCUGGGCCAGACGACUCGCCCGA
modifications: 2'-NH2 all C and U
B30: NS39 (ssRNA)
RNA: GGGAGGACGAUGCGGGUAGGGAUGAAGUGCGAUGUGAAUCCGGGUGCUAGCGAUGAUGUGUGCCCCAGACGACUCGCCCGA
modifications: 2'-NH2 all C and U
B31: NS48 (ssRNA)
RNA: GGGAGGACGAUGCGGGCUAAGGGAAGACAAUGAGAUAGCAGACAAUCAACUACACCCAUGUGCGUCAGACGACUCGCCCGA
modifications: 2'-NH2 all C and U
B32: NS49 (ssRNA)
RNA: GGGAGGACGAUGCGGAUAAGGAUAAGAUCGAACGAGAGUGAACAAAGUUAAAUACAGUCUGGGGGCAGACGACUCGCCCGA
modifications: 2'-NH2 all C and U
B33: NN18 (ssRNA)
RNA: GGGAAAAGCGAAUCAUACACAAGAGGAUGGCGGCAAGGCGCGAAAGGGAGGAUCGAGGAGGAAUCGCGUCAGGAGCUCCGCCAGAGACCAACCGAGAA
modifications: 2'-NH2 all C and U
B34: NN39 (ssRNA)
RNA: GGGAAAAGCGAAUCAUACACAAGACUGGUUGUGCGGACCCAGUGAGUGGGAGGACGUGAGGGUGGCAGCUGGGCUCCGCCAGAGACCAACCGAGAA
modifications: 2'-NH2 all C and U

Biological target: T1, secretory phospholipase A2 (sPLA2)
Test: filter; biphasic, Kd2 82 nM, mole fraction 0.60; TBSC with 5 mM CaCl2, 37 C
Settings: tags: supplied by Eli Lilly
Protocol: (§1) The nitrocellulose filter partitioning method was used as described in SELEX Patent Applications to determine the affinity of RNA ligands for sPLA_2 and for other promins. Filter discs (nitrocellulose/cellulose acetate mixed matrix, 0.45 µm pore size, Millipore) were placed on a vacuum manifold and washed with 5 ml of TBSC buffer under vacuum. Reaction mixtures, containing ^32P labeled RNA pools and sPLA_2, were incubated in TBSC for 5 minutes at 37° C., filtered, and then immediately washed with 5 ml TBSC. The filters were air-dried and counted in a Beckman liquid scintillation counter without fluor.
(§2) The dissociation constants for representative members of families I–VI, orphan and other ligands were determined by nitrocellulose filter binding experiments and are listed in Table III. Unlike random RNA, all tested ligands from the 2'OH SELEXes bound biphasically.

Binder B1 has a Kd of 1.3 nM.

Biological target: T1, secretory phospholipase A2 (sPLA2)
Test: filter; monophasic; TBSC, 37 C
Settings: tags: supplied by Eli Lilly
Protocol: as §1, §2

In order of rising Kd:
1. B2  5.6 nM
2. B4  7 nM
3. B5  12 nM
4. B3  14 nM

Same assay, conditions: tags: supplied by Eli Lilly; hairpin with asymmetric internal loop

In order of rising Kd:
1. B8  0.4 nM
2. B7  0.9 nM
3. B9  1.2 nM
4. B11  1.2 nM
5. B10  2.5 nM
6. B6  2.8 nM
7. B12  4.6 nM

Biological target: T1, secretory phospholipase A2 (sPLA2)
Test: filter; TBSC, 37 C
Settings: tags: supplied by Eli Lilly
Protocol: as §1, §2

In order of rising Kd:
1. B13  0.5 nM
2. B15  1 nM
3. B14  2.2 nM
4. GGGAAAAGAAGACCGGCCGGCGCCAUAGCCGAGAUCCGAGGUGUUGA (ssRNA, 2'-NH2 all C and U) [NN19.4]  7.3 nM
5. B28  12 nM
6. B27  15 nM
7. B30  16 nM
8. B24  18 nM
9. B17  21 nM
10. B16  22 nM
11. B25  22 nM
12. B19  23 nM
13. B22  24 nM
14. B32  26 nM
15. B23  28 nM
16. B20  31 nM
17. B18  36 nM
18. B26  40 nM
19. B21  42 nM
20. B31  42 nM
21. B29  52 nM

Biological target: T1, secretory phospholipase A2 (sPLA2)
Test: filter; like random pool; TBSC, 37 C
Settings: tags: supplied by Eli Lilly
Protocol: as §1, §2

In order of rising Kd:
1. B34  52 nM
2. B33  71 nM
